In patent publication US12410245 (UNIVERSITY OF VIRGINIA PATENT FOUNDATION, dated 2025):
Changes are numbered by the printed parent chain. “And” between values parts separate entries of the source, which are not always exact repeats. Equal values may be shown once. Values belong to the molecule of their own block, whether it stands above or below them.

Experiments:
FnIII9*10 [1] = biological target: FnIII9*10 (UniProt P02751); test: SPR (Biacore 2000), integrin immobilized, Fn fragment as analyte
FnIII9-4G-10 [2] = biological target: FnIII9-4G-10 (UniProt P02751); test: as above
FnIII6-9 = biological target: T1, FnIII6-9 (UniProt P02751-1 1085-1446, limits assumed); test: SPR, Fn fragment immobilized; SPR, FnIII6-9 immobilized (other target: fragment with the 9th repeat)
T1 construct: domain: FnIII6-9; also called FnIII9 (FnIII6-9); Fn fragment including the 9th type III repeat

FnIII10-14 = biological target: T2, FnIII10-14 (UniProt P02751-8 1447-1901); test: SPR, Fn fragment immobilized; SPR, FnIII10-14 immobilized; fitted KD given in the text (FIGS. 9D and 9E)
T2 construct: domain: FnIII10-14; also called FnIII10 (FnIII10-14); Fn fragment including the 10th type III repeat

FnIII9-4G-10 [3] = biological target: FnIII9-4G-10 (UniProt P02751); test: SPR, ratio of the KD values (107 nM on FnIII9*10 against 16 nM on FnIII9-4G-10)
FnIII9*10 [4] = biological target: FnIII9*10 (UniProt P02751); test: SPR
FnIII9-4G-10 [5] = biological target: FnIII9-4G-10 (UniProt P02751); test: SPR
FnIII9-4G-10 [6] = biological target: FnIII9-4G-10 (UniProt P02751); test: phage ELISA on maleimide plates (HRP anti-M13); absorbance (450 nm minus 650 nm) on 4G divided by absorbance on 9*10

Chain of FnIII9-4G-10 (P02751 other isoform, or with tags, fused parts or gaps): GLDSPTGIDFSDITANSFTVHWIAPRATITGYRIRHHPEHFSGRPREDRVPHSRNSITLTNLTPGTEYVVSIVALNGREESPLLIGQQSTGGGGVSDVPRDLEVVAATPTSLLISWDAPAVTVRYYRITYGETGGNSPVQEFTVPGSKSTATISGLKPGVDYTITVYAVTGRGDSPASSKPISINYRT
T2 sequence (P02751 other isoform, or with tags, fused parts or gaps limits assumed): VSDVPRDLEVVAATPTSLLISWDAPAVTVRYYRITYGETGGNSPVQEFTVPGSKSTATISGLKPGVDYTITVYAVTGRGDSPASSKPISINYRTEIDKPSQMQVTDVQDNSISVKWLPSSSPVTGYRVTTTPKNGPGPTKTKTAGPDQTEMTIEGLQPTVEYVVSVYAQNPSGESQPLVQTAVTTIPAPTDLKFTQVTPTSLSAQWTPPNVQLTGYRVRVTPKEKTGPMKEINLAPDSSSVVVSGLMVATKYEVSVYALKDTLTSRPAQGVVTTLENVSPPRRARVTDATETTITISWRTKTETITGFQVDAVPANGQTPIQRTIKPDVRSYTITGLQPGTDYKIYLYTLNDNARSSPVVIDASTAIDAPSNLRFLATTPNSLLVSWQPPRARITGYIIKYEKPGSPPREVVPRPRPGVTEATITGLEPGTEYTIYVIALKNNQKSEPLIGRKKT
T1 sequence (P02751 other isoform, or with tags, fused parts or gaps limits assumed): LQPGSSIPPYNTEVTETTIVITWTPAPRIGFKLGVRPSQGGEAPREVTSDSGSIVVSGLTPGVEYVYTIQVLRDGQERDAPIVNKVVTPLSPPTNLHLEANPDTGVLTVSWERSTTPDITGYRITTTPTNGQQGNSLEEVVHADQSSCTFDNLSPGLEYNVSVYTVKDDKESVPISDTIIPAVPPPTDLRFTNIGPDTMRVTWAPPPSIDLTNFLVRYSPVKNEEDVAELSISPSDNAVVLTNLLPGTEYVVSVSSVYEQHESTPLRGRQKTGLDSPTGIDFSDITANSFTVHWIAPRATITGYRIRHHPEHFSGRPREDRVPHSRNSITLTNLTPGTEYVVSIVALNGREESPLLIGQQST

- Kd (FnIII9*10 [1]): 40 nM
- Kd (FnIII9-4G-10 [2]): 40 nM
Molecule: integrin αvβ3 (R&D Systems) (from UniProt P06756 31-992; P05106 27-718) (receptor)

- Kd (FnIII6-9): 34.8 nM
- Kd (FnIII10-14): 5100 nM
- selectivity of binding (fold, against FnIII9-10 as reference) (FnIII9-4G-10 [3]): 10 fold
- Kd (FnIII9*10 [4]): 107 nM
- Kd (FnIII9-4G-10 [5]): 16 nM
- 4G/9*10 Ratio (FnIII9-4G-10 [6]): 1.21 and 1.02 and 1.06
B1: H5 scFv (scFv)
scFv: EVQLLESGGGLVQPGGSLRLSCAASGFTFSSYAMSWVRQAPGKGLEWVSDIYDGGGTNYADSVKGRFTTSRDNSKNTLYLQMNSLRAEDTAVYYCAKTADNFDYWGQGTLVTVSSGGGGSGGGGSGGGGSTDIQMTQSPSSLSASVGDRVTITCRASQSISSYLNWYQQKPGKAPKLLIYAASTLQSGVPSRFSGSGSGTDFTLTISSLQPEDFATYYCQQANSAPTTFGQGTKVEIKRAAA
notes: Soluble scFv from E. coli, purified by Protein-A; also called clone H5; H5 antibody

- 4G/9*10 Ratio (FnIII9-4G-10 [6]): 1.62
B2: H5 Modified Clone R1H6 (scFv)
scFv: B1 scFv with L78M

- 4G/9*10 Ratio (FnIII9-4G-10 [6]): 1.42 and 1.33
B3: H5 Modified Clone R1F8/R1H8 (scFv)
scFv: B1 scFv with A96T

- 4G/9*10 Ratio (FnIII9-4G-10 [6]): 2.53
B4: H5 Modified Clone R2G3 (scFv)
scFv: B1 scFv with P41S, N73D

- 4G/9*10 Ratio (FnIII9-4G-10 [6]): 1.49
B5: H5 Modified Clone R4B8 (scFv)
scFv: B1 scFv with D103Y
